The results in this text go back to US20240325557A1 (INNATE PHARMA, published 2024).

Experiment [1] has as its target T1, human Nectin 2 on CHO cells (human, UniProt Q92692 32-538).
T1 sequence: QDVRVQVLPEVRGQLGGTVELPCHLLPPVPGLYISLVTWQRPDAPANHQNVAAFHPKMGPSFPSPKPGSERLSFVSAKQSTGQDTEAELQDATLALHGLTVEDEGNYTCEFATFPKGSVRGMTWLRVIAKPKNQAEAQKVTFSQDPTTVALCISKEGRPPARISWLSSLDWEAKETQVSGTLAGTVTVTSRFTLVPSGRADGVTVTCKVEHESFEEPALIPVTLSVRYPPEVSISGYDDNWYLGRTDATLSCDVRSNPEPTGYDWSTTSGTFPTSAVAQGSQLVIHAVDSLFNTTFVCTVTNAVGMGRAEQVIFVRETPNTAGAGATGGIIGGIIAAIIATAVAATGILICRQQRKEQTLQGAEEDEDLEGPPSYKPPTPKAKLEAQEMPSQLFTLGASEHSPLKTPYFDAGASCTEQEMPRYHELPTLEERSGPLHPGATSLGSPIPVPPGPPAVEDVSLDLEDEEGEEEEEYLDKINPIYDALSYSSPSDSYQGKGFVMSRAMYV
In words: flow cytometry on CHO cells expressing human Nectin 2. On the procedure: (§1) Anti-Nectin-4 antibodies were tested by flow cytometry for binding to different CHO cell lines made to express respectively the human Nectin 1, Nectin 2, Nectin 3 and PVR proteins. The expression of each cell lines was controlled and validated with known respectively the anti-human Nectin1, anti-human Nectin2, anti-human Nectin3 and anti-human PVR antibodies. The mature amino acid sequence of the proteins expressed by the cells were as follows:
(§2) Nectin 1, Nectin 2, Nectin 3 and PVR proteins as in Example 12. […] Epitope mapping was carried out by assessing competition for binding to Nectin-4 by SPR as in Example 14.

Experiment [2] has as its target T2, human PVR on CHO cells (human, UniProt P15151 28-417).
T2 construct: also called PVR (Nectin-5)
T2 sequence: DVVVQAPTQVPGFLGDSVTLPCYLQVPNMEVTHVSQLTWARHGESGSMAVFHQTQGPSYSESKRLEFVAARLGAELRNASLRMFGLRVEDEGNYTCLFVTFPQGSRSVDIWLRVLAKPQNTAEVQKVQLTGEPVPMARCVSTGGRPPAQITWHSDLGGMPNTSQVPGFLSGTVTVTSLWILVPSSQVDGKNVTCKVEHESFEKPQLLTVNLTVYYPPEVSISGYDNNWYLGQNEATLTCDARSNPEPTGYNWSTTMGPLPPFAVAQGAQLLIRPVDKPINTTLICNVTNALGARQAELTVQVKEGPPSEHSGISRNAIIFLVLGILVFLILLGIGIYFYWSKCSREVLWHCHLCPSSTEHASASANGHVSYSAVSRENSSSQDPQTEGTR
The experiment can be described thus: flow cytometry on CHO cells expressing human PVR. The procedure: as §1, §2
On the technique in general: A flow cytometer gives signals particle by particle.

B1: antibody 6A7 (antibody, human IgG1, V domains shown)
VH: QVQLKESGAELVKPGASVKLSCKASGYTFTSYWMHWVKQRPGHGLEWVGEIDPSDSYTNYNQKFKGKATLTIDKSSSTVYMQLSSLTSEDSAVYYCARSGNYDAMDYWGQGTSVTVSA
VL: DIVMTQAAFSSAVTLGTSASISCRSSKSLLHSNGITYLYWYLQKPGQSPHFLIYQMSNLASGVPDRFTSSGSGTDFTLRISRVEAEDVGVYYCAQNLELPWTFGGGTKLEIK
notes: also called CHG1-M-4N4-6A7
As to B1, the binding result in experiment [1] and in experiment [2] was “no binding” throughout.
